Experimental data as given in the nanobody polyreactivity screen of Harvey et al. (2022).

experiment: yeast display, Sf9 membrane polyspecificity reagent, FACS + sequencing; frameworks hold sequencing errors
Summary of the method: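 Synthetic nanobody libraries on Saccharomyces cerevisiae BJ5465 were galactose-induced for 36–48 hours, stained 1 hour at 4 °C with 10% biotinylated, detergent-solubilized Sf9 membrane reagent and enriched on streptavidin microbeads. FACS then separated cells into low and high (top ~1%) gates by anti-HA (expression) and streptavidin (reagent binding) fluorescence. Genes were colony-PCR amplified, MiSeq 2 × 250 sequenced and CDR-length filtered. A clone's polyreactivity label is that of its gate of origin.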

Sequence | polyreactivity (PSR sort gate)
QGQLVESGGGLVQAGCSLRLSCAASGSNFYYKAMGWYRQAPRKERELVARISRSGGSTYADSVKGRFTISRDNAKNTVYLQMNSLKPEDTAVYYCNADAYGTPEFTPYSVRYDYWGQGTQVTVSS | low polyreactivity
QGQLVESGGGLVQAGGILRLRCAACGSTILVYAMGWYRHAPGQERELVAFIDNGGDTYYADSVKGRFTISRDNAKNTVYLQMYSLKPEDTEVYYCADDLSYLGYWEYDYWGQGTQVTVSS | low polyreactivity
QGQLVESGGGLVQAGGSLRLRSAASGRTFNYYAMGWYRQAHGKERELVATSSWSGVSTRYADSVKGRFTISRDNAKNTVYLEMNSLNPEDTAVYYCNAGYSKRSFYSAYGYWGEGTQVTVSS | high polyreactivity
QGQLVESGGGLVQAGGSLRLSCAASGFSFQYYAMGWSRHAHGKERELVAAINRGGGTHYADSVKGRFTISRDNAKNTVYFQMHSLKPEDTAVYYCNKVYYWPGSRPSRYEYWGQGTQVTVSS | low polyreactivity
QGQLVESGGGLVQAGGSLRLSCAASGFSYGFYAMGWYRQAPGKERELVASNSNGDSTNYADSVKGRFTISRDNAKNTVYLQMNSLKPEDTAVYYCATYGGYNPSPLYWGQGTQVTVSS | high polyreactivity
QGQLVESGGGLVQAGGSLRLSCAASGFTFKFYAMGWYRQAPGKEREFVAAISGSGGSTYYAHSVKGRFTISRDNAKNTVYLQMNSLKPEDTAVYYCAAEVPGKPYGRSRYSFRHDYWGQGTQVTVSS | low polyreactivity
QGQLVESGGGLVQAGGSLRLSCAASGGTFSDNVMGWYRQAPGKERELVAANSRSGGSTYYADSVKGRNTISRDNAKNTLSLQMNSLKPEDTAVYYCNAIGSKRGAYKAAFNYWGQGTQVTVSS | high polyreactivity
QGQLVESGGGLVQAGGSLRLSCAASGITFYSYAMGWYRQAPGKERELVAAITLTGGTTYYADSVKGRFTISRDNAKNTVYLQMNSLKPEDTAVYYCNSDYGGGVDGTYKYYSEYDYWGQGTQVTVSS | low polyreactivity
QGQLVESGGGLVQAGGSLRLSCAASGITYYKYVMAWYIQAPGKERELVAAISRSSGSTYYADSVKGRFTISRDNAKNTVYLQMNSLKPEDTAVYYCARDQGKLVVPYDYWGQGTQVTVSS | high polyreactivity
QGQLVESGGGLVQAGGSLRLSCAASGLIFYKYAMGWYRQAPGKERVLVAAISSSGGSTYYGDSVKGRFTISRDTAKNTVYFQMNSLKPEDTADSSCAARTNRRGYHDWGQGTQVTVSS | high polyreactivity
QGQLVESGGGLVQAGGSLRLSCAASGRIFYTNAMGGYRQARGKERELVAGINYSGGNTYADSVKGRFTISRDNAKNTVYLQMNSLKPEDTAVYYCAARGWSHYGYGDNYRHGYWGQGTQVTVSS | high polyreactivity
QGQLVESGGGLVQAGGSLRLSCAASGRTFDSNAMGWYRQAPGKERELFAAISQRGGRTYYADSVKGRFTISRDNAKNTVYFQMNSLKQVYTAFYYCNKVGRRKLDYWGQGTQVTVSS | high polyreactivity
QGQLVESGGGLVQAGGSLRLSCAASGRTFYTYAMGWYSPAAGKERELVAAMTRSGGRTYYADSVKVRFTISRDNAKNTVYLQMNSLKPEDTAVYYCGAKTFYWWADYDYWGQGTQVTVSS | high polyreactivity
QGQLVESGGGLVQAGGSLRLSCAASGRTFYVNAMGWYRQAPGKERELVAGISFSDGSTYYADSVKGRFTISRDNAKNSVYLQMNSLKPEDTAVYYCATVGAFDIYYGYGYWVQGTQVTVSS | low polyreactivity
QGQLVESGGGLVQAGGSLRLSCAASGRTLQYNAMGWYRPAPGKEWELVAAITSNGGSTYYADSVKGRFPISRDNAKNTVYLQMNSQKPEDTAVYDCAKAYRYVDRGYRLLRYGYWGQGNQVTVSS | high polyreactivity
QGQLVESGGGLVQAGGSLRLSCAASGSIFGGYGMGWYRQAPGKERELVAAITSGSSTYYADSVKGRFTISRDNAKNTVYLQMNSLKPEDTAVYYCAARPYPHSAYEGDYWGRGTQVTVSS | low polyreactivity
QGQLVESGGGLVQAGGSLRLSCAASGSIFGQYVMGWYRQAPGKERELVAAISGTGGSTYYADSVKGRFTISRDNAKNTVYLQMNSLKPEDTAVYYCAVVHRSSYRESGLLWRYYWGQGTQVTVSS | high polyreactivity
QGQLVESGGGLVQAGGSLRLSCAASGSIFRGYAMGWYRQAPGKERELVAAISWSGGSTYYADSVKGRFTISRDNAKNTVYLQMNSLKPEDTAVYYCAADRDVFGYWYYYWGQGTQVTVSS | high polyreactivity
QGQLVESGGGLVQAGGSLRLSCAASGSIFSKNALGWYRQAPGRERELVAAITSGASTNYADSVKGRFTISRDNAKNTVYLQMNSLKPEDTAGYYCAAKRNGFWYGYWGQGTQVTVSS | low polyreactivity
QGQLVESGGGLVQAGGSLRLSCAASGSIFYWYAMGWYRQAPGKERELVAVISTGTSTKYADSVKGRFTISRDNAKNTVYLQMNSLKPEDTAVYYCNADPVGPKYDYWGQGTQVTVSS | low polyreactivity

Sequence | polyreactivity (PSR sort gate)
QGQLVESGGGLVQAGGSLRLSCAASGSIVWYNAMGWYRQAPGKERELVAAINWSGGSTFYADSVKGRFTISRDNAKNTVYLQMYSLKPEDTAVYYCAADDWYTGYDYWGQGTQVTVSS | high polyreactivity
QGQLVESGGGLVQAGGSLRLSCAASGSSFPYYAMGWYRQAPGKERELVASINQSDGTTYYADSVKGRFSISRDNAKNTVYLQMNSLKPEDTAVYYCAADTTLQAFIRYSPIGSYDSWGQGTQVTVSS | low polyreactivity
QGQLVESGGGLVQAGGSLRLSCAASGSTFANYDMAWYRQAPGKERELVAAITSRGGSTYYADSVKGRFTISRDNAKNTVYLQMNSLKPEDTAVYYCAAVTRNQGSFRYYFWGQGTQVTVSS | high polyreactivity
QGQLVESGGGLVQAGGSLRLSCAASGSTFRYNTMGWYRQAPGKERELVAAISSGGGTHYADSVKGRFTISRDNAKNTVYLQMNSLKPEDTAVYYCAAQSRYRYQFYSGLEYDYWGQGTQVTVSS | low polyreactivity
QGQLVESGGGLVQAGGSLRLSCAASGSTFSDYAKGWYRQAPGKERELVAGITGGGGTYYADSVKGRFTISRDNAKNTVYLQMNSLKPEDTAVYYCAAGRRHGFGYWGQGTQVTVSS | low polyreactivity
QGQLVESGGGLVQAGGSLRLSCAASGSTFWLNAMGWYRHAPGKERELVAVITWSGDGTYYADSVKWRFTISRDNAKNTVYVQMNSLKPEDTAVYYCAKGFERYPWYDYWGQGTQVTVSS | low polyreactivity
QGQLVESGGGLVQAGGSLRLSCAASGSTFWRYAMGWYRQAPGKERELVAAISRSGGSTYYADSVKGRFTISRDNAKNTVYLQMHSLKPEDTAFYYCAARYPTPYRKLGSWGQGTQVSVSS | high polyreactivity
QGQLVESGGGLVQAGGSLRLSCAASGSTLVKYAMGTNRQAPGKERELVAAISWSGGRTDYADSVKGRFTSSRDNAKNTVYLQMNSLKPEDTAVYYCAARSTRFYTPGYYYWGQGTQVTVSS | high polyreactivity
QGQLVESGGGLVQAGGSLRLSCAASGSTSGKNAMGWYRQAPGQERELVAVITYSGSRTYYADSVKGRFTISRDNAKNTVYLQMNSLKPEDTAVYYCATRGLKTYQAYDYWGQGTQVTVSS | high polyreactivity
QGQLVESGGGLVQAGGSLRLSCSASGLIFYRYTMGWYRQAPGKEREVVAAISSGGRTYSADSVKGRFTISRDNAKNTVYLQMNSLKPEDTAVYYCATRVYSVHAPSAVPIGGYYWGQGTQVTVSS | high polyreactivity
QGQLVESGGGLVQAGGSLRLSSAASGRIYLTNAMGWYRPAPGKERELVAAITSGGSTYYADSVKGRFTISRDNAKNTVYLQMNSLKPEDTAVYYCNADTDRYWPYEYDYWGQGTQVTVSS | low polyreactivity
QGQLVESGGGLVQAGGSLRVSCAASGYTFDSYAMGLYRQAPGKERELFAAITNGGSTYYADSVKGRFTISRDNAKKTVYLQLNSLKPEDTAVYYCATDDDQLDYLYDYWGPGTQVTVSS | low polyreactivity
QGQLVESGGGLVQAGGSLSLSCAASGFTFRYYTMGWYIQAPGKERALVASISRRGGSTYYADSVKGRFTISRDNAMNTVYLQMHSLKPEGTAVYYCNPLSQVFASRAPKFDYWGQGTQVTVSS | high polyreactivity
QGQLVESGGGLVQAGGSRRLSCAASGYSIDNNAMGWYRQAPGKEREVVASITNSAGSTSYADSVKGRFTISRDTAKNTVYLQMNSLKPEDTAVCYCSAKRYHYFFQYSRSGAYGYWGHGTQVTVSS | high polyreactivity
QGQLVESGGGLVQARGSLRLSCAASGRIFMTYAMAWYIQAPGKERELVAAIRSPSGTTYYADSVKGRFTISRDNAKNTVYLQMNSLKPEDTAVYYCAAGGKYSSYYWGQGTQVTVSS | high polyreactivity
QGQLVESGGGVVQAGGSLRLSSAASRRIFYSYPLGWYRPAPGKERELVAAISSSGGITYYADSVKGRFTISRDNAKNTGSLELNSLKPEDTAVYYCAARRRYKSGYWGQGTQVTVSS | high polyreactivity
QGQLVESGRGLVQAGGSLSLSCAASGSTFFIYAMGWYRQAPGKERELVAAINRSGGRTYYADSVKGRFTISRYTAQNTVYLQMNSLKPEDTAVYYCAAYLGPYVRFYYWGQGTQGTVSS | high polyreactivity
QGQLVESVGGLVQAGGSLRLSCAASGSIFGWYVMGWYRQAPGQERELVAAISSVGSTYYADSVKGRFTISLDNAKNTVYLQMNSLKAEDTAVYYCAKLRYPYLFWDDSEYWGQGTQVTVSS | low polyreactivity
QGQLVETGGGLGQAGGSLRLSCAASGIIFYYYAMGWYRQAPGKERELVAAITGTGSRTYYADSVKGRFTISRDNAKNTVYIQMNSLKPEDTAVYYCYARSFATCSKVPARGYWGQGTQVTVSS | high polyreactivity
QGQLVVSGGGLVQAGGSLRLSCAASGRTFYWNAMGWSIQAPGKERELFASINGGGSTYYADSVKGRFTISRDNAKNTVYLQMYSLKPEDTAVYYCNAESYEFHRAWGDYDDWGHGTQVTVSS | low polyreactivity
